B1: TPR t1 (parent)
chain: GACCAAUCUGCCCUCAGAGCUCGAGAACAUCUUCGGAUGCAGAGGAGGCAGGCUUCGGUGGCGCGAUAGCGCCAACGUCCUCAACCUCCAAUGCAUCCCACCACAUGAUGAUGCCUGAAGAGCCUUGGUUUUUUG

Variants of: B1
Experiment: polymerase ribozyme fitness, log enrichment relative to wild type (log ratio); higher = more active; in vitro selection for triplet polymerase activity
Procedure, shortened: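 A single round of triplicate in vitro selection, including frozen incubation at −7 °C, was applied to PCR-built, transcribed mutant libraries of each subunit of a heterodimeric triplet polymerase ribozyme. Illumina sequencing of input and output libraries retained genotypes with ≥10 input reads and ≥1 read per output. Fitness is the base-2 logarithm of genotype enrichment divided by wild-type enrichment, from inverse-variance-weighted replicate averages.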
For GACCAAGCUGCCCUCAGAGCUCGAGAACAUCUUCGGAUGCUGAGGAGGCAGGCUUCGGGGGCGCGAUAGCGCUAACGUCCUCAACCUCCAAUGCAUCCCACCACAUGAUGAUGCCUGAAGCGCCUUGGUUUUUUG [U7G A41U U59G C73U A121C], the “polymerase ribozyme fitness (log ratio)” value was 0.0183.
With GACCAAUCUCCCCUCAGAGCUCGAGAACAUCUUCGGAUGCAGAGGAGGCAGGCUUCGGUGUCGCGAUAGCGCCAACGUCCUCAACCUCCAAUGCAUCCCACCACAUGAUGAUGUCUGAAGAGCCUUGGUUUUUUG [G10C G61U C114U] the “polymerase ribozyme fitness (log ratio)” value was -1.8.
With GACCAAUCUGCCCUCAGAGCUCGAGAACAUCUUGGGAUGCAGAGGAGGCAGGCUUCGGUGACGCGAUAGCGCCAACGUCCUCAACCACCAAUGCAUCCCACCACAUGAUCAUGCCUGAAGAGCCUUGGUUUUUUG [C34G G61A U87A G110C] the “polymerase ribozyme fitness (log ratio)” value was -6.72.
For GACCAAUCUGCCCUCAGAGCUCGAGAACAUCUUCGGAUGCAGAGGAGGCAGGCUUCGGUGGCGCGAUAGCGCCAACGCCCACGACCUCCAAUGCAUCCCACCACAUGAUGAUGCCUGAAGAGCCUUGGUUUUUUG [U78C U81A A83G], the “polymerase ribozyme fitness (log ratio)” value was -0.944.
For GACCAAUCUGCCCUCAGAGCUCGAGAACAUCUUCGGAUGCAGAGGAGGCAGACUUCGGUGGCGCGAUAGCGCCAACGACCUCAACCUCCAAUGCAUCCCACCACAUGAUGAUGCAUGAAGAGCCUUGGUUUUUUG [G52A U78A C115A], the “polymerase ribozyme fitness (log ratio)” value was 0.0466.
For GACCCAUCUGGCCUCAGAGCUCGAGAACAUCUUCGGAUGCAGAGGAGGCAGGCUUCGGUGGCGCGAUAGCGCCAACGUCCUCAAGCUCCAAUGCAUCCCACCACAUGAUGAUGCCUGAAGAGCCUUGGUUUUUUG [A5C C11G C85G], the “polymerase ribozyme fitness (log ratio)” value was -1.61.
With GACCAAUCUGCCCUCAGAGCUCGAGAACAUCUUCGGAUGCAGAAGAGGCAUGCUUCGGUGGCGCGAUGGCGCCAACGUCCUCAACCUCCAAUGCAUCCCACCACAUGAUGAUGCCUGAAGGGCCUUGGUUUUUUG [G44A G51U A68G A121G] the “polymerase ribozyme fitness (log ratio)” value was -5.63.
For GACCUAUCUGCCCUCAGAGCUCGAGAACAUCUUCGGAUGCAGAGGAGGCAGGCUUCGGUGGCGCGAUAGCGCCAACGUCCGCAACCUCCAAUACAUCCCACCACAAGAUGAUGCCUGAAGAGUCUUGGUUUUUUG [A5U U81G G93A U106A C123U], the “polymerase ribozyme fitness (log ratio)” value was -3.99.
In the case of GACCAAUCUGCCCUCAGAGCUCGAGAACAUCUUCGGAUGCAGAGGAGGCAGGCUUCGGUGGCGCGAUACCGCCAACGUCCUCAACCUCCAAUCCAUCCCACCACAUGAUGAUGCCUGAAGAGCCUUGGUUUUUUG [G69C G93C], the “polymerase ribozyme fitness (log ratio)” value is reported as -3.05.
In the case of GAACAAUCUGCCCUCAGAGCUCGAGAACAUCUUCGGAUGCAGAGGAGGCAGGCUUCGGUGGCGCGAUAGCGCCAACGUCCUCAACCUCCAAUGCAUCCCACCACAUGAUGAUGCCUGAAGAGCCUUGUUUUUUUG [C3A G128U], the “polymerase ribozyme fitness (log ratio)” value is reported as -1.03.
For GACCAAUCUGCCCUCAGAGCUCGAGAACAUCUUCGGAUGCAGAGGAGGCAGGCUUCUGUGGCGCGAUAGCGCCAACGUCCUCAACCUCCAAUGCAUCCCACCACAUGAUGAUGCCUGAAGAGACUUGGUUUUUUG [G57U C123A], the “polymerase ribozyme fitness (log ratio)” value was 0.124.
For GACCAAUCUGCUCUAAGAGCUCGAGAACAUCUUCGGCUGCAGAGGAGGCAGUCUUCGGUGGCGCGAUAGCGUCAACGUCCUCAACCUCCAAUGCAUCCCACCACAUGAUGAUGCCGGAAGAGCCUUGGUUUUUUG [C12U C15A A37C G52U C72U U116G], the “polymerase ribozyme fitness (log ratio)” value was -3.77.
For GACCAAUCUGCCCUCAGAGCUCGAGAACAUCUUCGGAUGCAGAGGAGGCCGGGUUCGGUGGCGCGAUAGCGCAAACGUCCUCAACCUCCAAUGCAUCCCACCACAUGAUGAUGCCUGAAGAGCCUGGGUUUUUUG [A50C C53G C73A U126G], the “polymerase ribozyme fitness (log ratio)” value was -2.99.
For GACCAAUCUGCCCUCAGAGCUCGAGAACAUCUUCGGAUGCAGAGGAGGCAGUUUUCGGUGGCGCGAUAGCGCCAACGUCCUCAACCUCCAAUGCAUCCCACCACAUGAUGAUGCCUGAAGAGCCUUGGUUUUUUG [G52U C53U], the “polymerase ribozyme fitness (log ratio)” value was -1.04.
In the case of GACCAAUCUGCCCUCAGAGCUCGAGAACAUCUUCGGAUGCAGAGGAGGCAGCCUUAAGUGGCGCGAUAGCGCCAACGUCCUCAACCUCUACUGUAUCCCACCACAUGAUGAUGCCUGAAGAGCCUUGGUUUUUUG [G52C C56A G57A C89U A91C C94U], the “polymerase ribozyme fitness (log ratio)” value is reported as -3.35.
With GACCAAUCUGCCCUCAGAGCUCGAGAACAUCUUCGGAUGCAGAGGAGGAAGGUUUCGGUGGCGCGAUAGCGCCAACGUCCUCAACCUCCAAUGCAUCCCAACACAUGAUGAUGCCUGAAGAGCCUUGGUUUUUUG [C49A C53U C101A] the “polymerase ribozyme fitness (log ratio)” value was -1.38.
With GACCAAUCUGCCCUCAGAGCUCGAGAACAUCUUAGGAUGCAGAGGAGGCAGGCUUCGGUGGCGCGAUAGCGGCAACGUCCUCAACCUCCAAUGCAUCCCACCACAUGAUGAUGCCUGAAGAGCCUUGGUUUUUUG [C34A C72G] the “polymerase ribozyme fitness (log ratio)” value was -3.33.
For GACCAAUCUGCCCUCAGAGCUCGAGAACAUCUUCGGAUGCAGAGGAGGCAGGCUUCGGUGGCGCGAUAGCGCCAACGUCCUUAACCUCCAAUGCAUCCCACCACAUGAUGAUGCCUGAAGAGCCUUGAUUUUUUG [C82U G128A], the “polymerase ribozyme fitness (log ratio)” value was -2.32.
In the case of GACCAAUGUGCCCUCAGAGCUCGAGAACAUCUUCGGAUGCAGAGGGGGCAGGCUUCGGUGGCGCGAUAGCGCCAACGUCCUCAACCUCCAAUGCAUCCCACCACAUGAUAAUGCCUGAAGAGCCUUGGUUUUUUG [C8G A46G G110A], the “polymerase ribozyme fitness (log ratio)” value is reported as -0.456.
In the case of GACCAAUCUGCCCUCAGAGCUCGAAAACAUCUUCGGAUGCUGAGGAGGCAGGCUUCGGUGGCGCGAUAGCGCCAACGUCCUCAACCUCCAAUGCAUCCCACCACAUGAUGAUGCCUGAAGAGCCUUGGUUUUUUG [G25A A41U], the “polymerase ribozyme fitness (log ratio)” value is reported as -5.8.
For GACCAAUCUGCCCUCGGAGCUCGAGAACAUCUUCGGAUGCAGAGGAGGCAGGCUUCGGUGGCGCGAUAGUGCCAACGUCCUGAACCUCCAAUGCAUCCCACCACAUGAUGAUGCCUGAAGAGCCUUGGUUUUUUG [A16G C70U C82G], the “polymerase ribozyme fitness (log ratio)” value was -2.05.

— the RNAGym collection of RNA variant scans (doi:10.1073/pnas.2313332121)
